The values below are quoted from earlier work in paper PMC7640956.

A word on the Kd: it is the free concentration of one partner at which half of the binding sites on the other are occupied at equilibrium, for simple one-to-one binding.

The target of the data set is Spike RBD (Severe acute respiratory syndrome coronavirus 2) (UniProt P0DTC2).

As for “ACE2-derived 23-mer peptide (from UniProt Q9BYF1)”, the Kd was 47 nM.
